Assay results: patent US20220010008A1
Where a chain is given by its changes, count along the chain named. Where “and” joins values, the source holds several entries; their conditions need not be identical. Identical values can stand only once. One block for each binder: values may come before it.

Assays:
[1] = biological target: recombinant human IL-5 protein (human) (UniProt P05113); experiment: SPR, human IL-5 immobilized on CM5 chip, chimeric antibody as analyte, 1:1 global fit
[2] = biological target: recombinant human IL-5 protein (human) (UniProt P05113); experiment: FACS, biotin-IL-5 bound to CHOK1 hIL-5Ra/CSF2RB cells with Ab 1.3333 nM
[3] = biological target: recombinant human IL-5 protein (human) (UniProt P05113); experiment: FACS, biotin-IL-5 bound to CHOK1 hIL-5Ra/CSF2RB cells with Ab 0.2667 nM
[4] = biological target: recombinant human IL-5 protein (human) (UniProt P05113); experiment: FACS, biotin-IL-5 bound to CHOK1 hIL-5Ra/CSF2RB cells with Ab 0.0533 nM
[5] = biological target: recombinant human IL-5 protein (human) (UniProt P05113); experiment: FACS, biotin-IL-5 bound to CHOK1 hIL-5Ra/CSF2RB cells with Ab 6.6667 nM
[6] = biological target: recombinant human IL-5 protein (human) (UniProt P05113); experiment: FACS, biotin-IL-5 bound to CHOK1 hIL-5Ra/CSF2RB cells with Ab 0.0004 nM
[7] = biological target: recombinant human IL-5 protein (human) (UniProt P05113); experiment: cell-based or functional assay
[8] = biological target: recombinant human IL-5 protein (human) (UniProt P05113); experiment: FACS, biotin-IL-5 bound to CHOK1 hIL-5Ra/CSF2RB cells with Ab 33.3333 nM
[9] = biological target: recombinant human IL-5 protein (human) (UniProt P05113); experiment: FACS, biotin-IL-5 bound to CHOK1 hIL-5Ra/CSF2RB cells with Ab 0.0107 nM
[10] = biological target: recombinant human IL-5 protein (human) (UniProt P05113); experiment: FACS, biotin-IL-5 bound to CHOK1 hIL-5Ra/CSF2RB cells with Ab 0.0021 nM
[11] = biological target: recombinant human IL-5 protein (human) (UniProt P05113); experiment: SPR, human IL-5 immobilized on chip, 1:1 fit

B1: 102A2E11B6 mouse-human chimeric antibody (antibody, human IgG4, V domains shown)
VH: QVQLRQSGPGLVQPSQSLSITCTVSGFSLTSYGVHWVRQSPGKGLEWLGVIWSGGSTDYNAVFMSRLSISKDSSKSQVFFKMNSLQTDDTAIYYCARNRYVLDYWGQGTSVTVSS
VL: DIVMTQSPSSLSVSAGERVTMRCKSSQSLLTSGDQKNHLAWYQQKPGQPPKLLIYGASTRESGVPDRFTGSGSGTDFTLTITSVQAEDLAVYYCQNDHSFPLTFGAGTKLELK
Kd [1]: 0.221 nM
koff [1]: 2.73e-05 s⁻¹
kon [1]: 124000 M⁻¹ s⁻¹

B2: 147D7H2 (murine hybridoma lead antibody) (antibody, V domains shown)
VH: EVQLQQSGAELVKPGASVKLSCTASGFNIKDYFIHWVKQRTEQGLEWIGRIDTEDGETKYAPKFQGKATITIDTSSNTAYLYFSSLTSEDTAMYYCARYGNYVAMDYWGQGTSVTVSS
VL: QIVLTQSPALMSASPGEKVTMTCSASSSVSYMFWYQQKPSSSPKPWIYLTSKLASGVPARFSGSGSGTSYSLTISSVEAEDAATYYCQQWNSNPYTFGGGTKLEIK
Fluorescence intensity [2]: 55
Fluorescence intensity [3]: 74
Fluorescence intensity [4]: 90
Fluorescence intensity [5]: 36
Fluorescence intensity [6]: 96
RLU, CTLL-2 cell proliferation stimulated by IL-5, Ab conc. 0.000170667 nM [7]: 56800 RLU and 61000 RLU
RLU, CTLL-2 cell proliferation stimulated by IL-5, Ab conc. 0.000853333 nM [7]: 56400 RLU and 57300 RLU
RLU, CTLL-2 cell proliferation stimulated by IL-5, Ab conc. 0.004266667 nM [7]: 50600 RLU and 55900 RLU
RLU, CTLL-2 cell proliferation stimulated by IL-5, Ab conc. 0.02133333 nM [7]: 49000 RLU and 45200 RLU
RLU, CTLL-2 cell proliferation stimulated by IL-5, Ab conc. 0.1066667 nM [7]: 26500 RLU and 26300 RLU
RLU, CTLL-2 cell proliferation stimulated by IL-5, Ab conc. 0.5333334 nM [7]: 16700 RLU and 15200 RLU
RLU, CTLL-2 cell proliferation stimulated by IL-5, Ab conc. 2.666667 nM [7]: 13700 RLU and 14400 RLU
RLU, CTLL-2 cell proliferation stimulated by IL-5, Ab conc. 13.33333 nM [7]: 12900 RLU and 13500 RLU
RLU, CTLL-2 cell proliferation stimulated by IL-5, Ab conc. 66.66666 nM [7]: 10700 RLU and 11300 RLU
RLU, CTLL-2 cell proliferation stimulated by IL-5, Ab conc. 3.41333E-05 nM [7]: 58900 RLU and 59800 RLU
RLU, TF-1 cell proliferation stimulated by IL-5, Ab conc. 0.00001 nM [7]: 111000 RLU and 112000 RLU
RLU, TF-1 cell proliferation stimulated by IL-5, Ab conc. 0.00003 nM [7]: 111000 RLU and 113000 RLU
RLU, TF-1 cell proliferation stimulated by IL-5, Ab conc. 0.00017 nM [7]: 116000 RLU and 112000 RLU
RLU, TF-1 cell proliferation stimulated by IL-5, Ab conc. 0.00085 nM [7]: 105000 RLU
RLU, TF-1 cell proliferation stimulated by IL-5, Ab conc. 0.00427 nM [7]: 90300 RLU and 86300 RLU
RLU, TF-1 cell proliferation stimulated by IL-5, Ab conc. 0.02133 nM [7]: 72200 RLU and 55900 RLU
RLU, TF-1 cell proliferation stimulated by IL-5, Ab conc. 0.10667 nM [7]: 42300 RLU and 43600 RLU
RLU, TF-1 cell proliferation stimulated by IL-5, Ab conc. 0.53333 nM [7]: 36200 RLU and 39400 RLU
RLU, TF-1 cell proliferation stimulated by IL-5, Ab conc. 2.66667 nM [7]: 39900 RLU and 38100 RLU
RLU, TF-1 cell proliferation stimulated by IL-5, Ab conc. 13.33333 nM [7]: 35500 RLU and 37500 RLU
Fluorescence intensity [8]: 31
Fluorescence intensity [9]: 88
Fluorescence intensity [10]: 93
Kd [11]: < 0.0504 nM
koff [11]: < 1e-05 s⁻¹
kon [11]: 198000 M⁻¹ s⁻¹

The next lines start with the values.

Fluorescence intensity [2]: 46
Fluorescence intensity [3]: 69
Fluorescence intensity [4]: 84
Fluorescence intensity [5]: 34
Fluorescence intensity [6]: 93
RLU, CTLL-2 cell proliferation stimulated by IL-5, Ab conc. 0.000170667 nM [7]: 58000 RLU and 54700 RLU
RLU, CTLL-2 cell proliferation stimulated by IL-5, Ab conc. 0.000853333 nM [7]: 56500 RLU and 56300 RLU
RLU, CTLL-2 cell proliferation stimulated by IL-5, Ab conc. 0.004266667 nM [7]: 53600 RLU and 50900 RLU
RLU, CTLL-2 cell proliferation stimulated by IL-5, Ab conc. 0.02133333 nM [7]: 39300 RLU and 38800 RLU
RLU, CTLL-2 cell proliferation stimulated by IL-5, Ab conc. 0.1066667 nM [7]: 14000 RLU and 12200 RLU
RLU, CTLL-2 cell proliferation stimulated by IL-5, Ab conc. 0.5333334 nM [7]: 12500 RLU and 11700 RLU
RLU, CTLL-2 cell proliferation stimulated by IL-5, Ab conc. 2.666667 nM [7]: 8720 RLU and 8840 RLU
RLU, CTLL-2 cell proliferation stimulated by IL-5, Ab conc. 13.33333 nM [7]: 7410 RLU and 6600 RLU
RLU, CTLL-2 cell proliferation stimulated by IL-5, Ab conc. 66.66666 nM [7]: 6500 RLU and 5240 RLU
RLU, CTLL-2 cell proliferation stimulated by IL-5, Ab conc. 3.41333E-05 nM [7]: 60600 RLU and 48600 RLU
RLU, TF-1 cell proliferation stimulated by IL-5, Ab conc. 0.00001 nM [7]: 104000 RLU and 105000 RLU
RLU, TF-1 cell proliferation stimulated by IL-5, Ab conc. 0.00003 nM [7]: 95400 RLU and 98300 RLU
RLU, TF-1 cell proliferation stimulated by IL-5, Ab conc. 0.00017 nM [7]: 86500 RLU and 91300 RLU
RLU, TF-1 cell proliferation stimulated by IL-5, Ab conc. 0.00085 nM [7]: 72700 RLU and 70700 RLU
RLU, TF-1 cell proliferation stimulated by IL-5, Ab conc. 0.00427 nM [7]: 51100 RLU and 54700 RLU
RLU, TF-1 cell proliferation stimulated by IL-5, Ab conc. 0.02133 nM [7]: 49900 RLU and 47200 RLU
RLU, TF-1 cell proliferation stimulated by IL-5, Ab conc. 0.10667 nM [7]: 40400 RLU
RLU, TF-1 cell proliferation stimulated by IL-5, Ab conc. 0.53333 nM [7]: 35100 RLU and 37700 RLU
RLU, TF-1 cell proliferation stimulated by IL-5, Ab conc. 2.66667 nM [7]: 37900 RLU and 34300 RLU
RLU, TF-1 cell proliferation stimulated by IL-5, Ab conc. 13.33333 nM [7]: 35300 RLU and 36600 RLU
Fluorescence intensity [8]: 30
Fluorescence intensity [9]: 87
Fluorescence intensity [10]: 86
Kd [11]: 0.0186 nM
koff [11]: 9.04e-06 s⁻¹
kon [11]: 486000 M⁻¹ s⁻¹
B3: 151G3B11 (murine hybridoma lead antibody) (antibody, V domains shown)
VH: EVHLQQSGAELVKPGASVKLSCTASGFNIKDYYMHWVKQRTEQGLEWIGRIDPEDGETKYAPKFQGQATITADTSSNTANLQLSSLTSEDTAVYYCARYGNFPDYWGPGTTLTVSS
VL: B2 VL with F33Y, S40R, V77M

Fluorescence intensity [2]: 66
Fluorescence intensity [3]: 86
Fluorescence intensity [4]: 92
Fluorescence intensity [5]: 43
Fluorescence intensity [6]: 90
RLU, CTLL-2 cell proliferation stimulated by IL-5, Ab conc. 0.000170667 nM [7]: 57900 RLU and 56300 RLU
RLU, CTLL-2 cell proliferation stimulated by IL-5, Ab conc. 0.000853333 nM [7]: 64800 RLU and 54500 RLU
RLU, CTLL-2 cell proliferation stimulated by IL-5, Ab conc. 0.004266667 nM [7]: 64200 RLU and 64300 RLU
RLU, CTLL-2 cell proliferation stimulated by IL-5, Ab conc. 0.02133333 nM [7]: 56900 RLU and 52300 RLU
RLU, CTLL-2 cell proliferation stimulated by IL-5, Ab conc. 0.1066667 nM [7]: 36100 RLU and 30000 RLU
RLU, CTLL-2 cell proliferation stimulated by IL-5, Ab conc. 0.5333334 nM [7]: 21500 RLU and 20200 RLU
RLU, CTLL-2 cell proliferation stimulated by IL-5, Ab conc. 2.666667 nM [7]: 19700 RLU and 17100 RLU
RLU, CTLL-2 cell proliferation stimulated by IL-5, Ab conc. 13.33333 nM [7]: 16200 RLU and 14700 RLU
RLU, CTLL-2 cell proliferation stimulated by IL-5, Ab conc. 66.66666 nM [7]: 11500 RLU and 10900 RLU
RLU, CTLL-2 cell proliferation stimulated by IL-5, Ab conc. 3.41333E-05 nM [7]: 58700 RLU and 61300 RLU
RLU, TF-1 cell proliferation stimulated by IL-5, Ab conc. 0.00001 nM [7]: 108000 RLU and 113000 RLU
RLU, TF-1 cell proliferation stimulated by IL-5, Ab conc. 0.00003 nM [7]: 110000 RLU and 115000 RLU
RLU, TF-1 cell proliferation stimulated by IL-5, Ab conc. 0.00017 nM [7]: 114000 RLU and 108000 RLU
RLU, TF-1 cell proliferation stimulated by IL-5, Ab conc. 0.00085 nM [7]: 99300 RLU and 103000 RLU
RLU, TF-1 cell proliferation stimulated by IL-5, Ab conc. 0.00427 nM [7]: 76100 RLU and 79700 RLU
RLU, TF-1 cell proliferation stimulated by IL-5, Ab conc. 0.02133 nM [7]: 54800 RLU and 57500 RLU
RLU, TF-1 cell proliferation stimulated by IL-5, Ab conc. 0.10667 nM [7]: 42100 RLU and 51500 RLU
RLU, TF-1 cell proliferation stimulated by IL-5, Ab conc. 0.53333 nM [7]: 40600 RLU and 42300 RLU
RLU, TF-1 cell proliferation stimulated by IL-5, Ab conc. 2.66667 nM [7]: 34500 RLU and 42000 RLU
RLU, TF-1 cell proliferation stimulated by IL-5, Ab conc. 13.33333 nM [7]: 33800 RLU and 35300 RLU
Fluorescence intensity [8]: 34
Fluorescence intensity [9]: 91
Fluorescence intensity [10]: 91
Kd [11]: 0.158 nM
koff [11]: 6.65e-05 s⁻¹
kon [11]: 422000 M⁻¹ s⁻¹
B4: 154F10G8 (murine hybridoma lead antibody) (antibody, V domains shown)
VH: QVQLQQPGAELVKPGASVKLSCKASGYTFTSYWITWVKQRPGQGLEWIGDIYPGSGSTFYNEKFKSEATLTVDTSSSTAYMQLSSLTSEDSAVFYCSTETTLGYWGQGTTLTVSS
VL: DVLMTQTPLSLPVSLGDQASISCRSSQSIVHNNGNTYLEWYLQKPGQSPKLLIYKVSNRFSGVPDRFSGSGSGTDFTLKISRVEAEDLGVYYCFQGSHVPFTFGSGTKLEIK
